Measured values published in PMC6801465.

Target: EGFR on the cell surface (Huh-7, U87MG, MDA-MB-231) (human) (UniProt P00533)
Experiment: flow cytometry
Conditions: 2'-OMe on U, G, C, all A (positions 8, 14, 19, 21, 24) are DNA, Binding buffer: serum-free DMEM + 100 ug/mL tRNA, aptamers denatured 95 C 5 min, snap cooled on ice 10 min, ELONA 1 h (temperature not given)

UGCUUUGAUGUCGAUUCGACAGGAGGC [CL-4RNV616]
Kd (Huh-7 cells): 71.2 nM
Kd (MDA-MB-231 cells): 89.8 nM
Kd (U87MG cells): 112 nM
